Results on one substance are retold here after article PMC10932606.

For orientation: stoichiometry N means a count of units in the complex or per binding partner.

This assay addresses semiSWEET. As to the kind of experiment: native MS.

The substance semiSWEET (natural protein) registered a percent dimer greater than 95% and a stoichiometry N of 2.
